Experimental data taken from US20260001928A1 (CORTERIA PHARMACEUTICALS, priority 2022, published 2026).
One block for each binder: values may come before it. *1 amine or outer side, *2 acyl side, *3 side chain or, on linkers, in order; H or OH if unused. Where no end group is shown, it is not given here. Side-chain parts run from the residue outwards. [ ]: non-standard residue; d: D form. The star is where a group is joined. C20 diacid = O=C(O)CCCCCCCCCCCCCCCCCCC(=O)*; C16 diacid = O=C(O)CCCCCCCCCCCCCCC(=O)*; γGlu = O=C(O)[C@H](CCC(=O)[*:2])N[*:1]; NMeI = CC[C@H](C)[C@H](NC)C(=O)O; AEEA = NCCOCCOCC(=O)O; Aib = CC(C)(N)C(=O)O

Molecular target: human corticotropin-releasing factor 2a (CRF2a receptor) (human), Q13324
Experiment: cell-based or functional assay

Sequence of human corticotropin-releasing factor 2a (CRF2a receptor) (human), Q13324 (Q13324 20-411): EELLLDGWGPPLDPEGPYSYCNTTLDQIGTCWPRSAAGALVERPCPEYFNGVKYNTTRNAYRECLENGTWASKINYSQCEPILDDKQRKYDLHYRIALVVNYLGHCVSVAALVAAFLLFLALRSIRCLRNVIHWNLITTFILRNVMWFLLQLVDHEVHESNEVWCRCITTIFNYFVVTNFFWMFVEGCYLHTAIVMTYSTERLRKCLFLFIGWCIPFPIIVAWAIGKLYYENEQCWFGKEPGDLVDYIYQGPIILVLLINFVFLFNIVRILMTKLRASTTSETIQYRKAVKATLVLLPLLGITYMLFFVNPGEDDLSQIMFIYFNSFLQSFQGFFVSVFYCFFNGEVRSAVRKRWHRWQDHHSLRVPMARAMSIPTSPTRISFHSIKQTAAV

B1: SEQ ID NO 34 (peptide)
peptide: H-VLSLD[dV]PIKLK([γGlu-C16 diacid])KILLEQEKQKKQREQAETNKQILAQV-NH2
SMILES: CC[C@H](C)[C@H](NC(=O)[C@H](CCC(N)=O)NC(=O)[C@H](CCCCN)NC(=O)[C@H](CC(N)=O)NC(=O)[C@@H](NC(=O)[C@H](CCC(=O)O)NC(=O)[C@H](C)NC(=O)[C@H](CCC(N)=O)NC(=O)[C@H](CCC(=O)O)NC(=O)[C@H](CCCNC(=N)N)NC(=O)[C@H](CCC(N)=O)NC(=O)[C@H](CCCCN)NC(=O)[C@H](CCCCN)NC(=O)[C@H](CCC(N)=O)NC(=O)[C@H](CCCCN)NC(=O)[C@H](CCC(=O)O)NC(=O)[C@H](CCC(N)=O)NC(=O)[C@H](CCC(=O)O)NC(=O)[C@H](CC(C)C)NC(=O)[C@H](CC(C)C)NC(=O)[C@@H](NC(=O)[C@H](CCCCN)NC(=O)[C@H](CCCCNC(=O)CC[C@H](NC(=O)CCCCCCCCCCCCCCC(=O)O)C(=O)O)NC(=O)[C@H](CC(C)C)NC(=O)[C@H](CCCCN)NC(=O)[C@@H](NC(=O)[C@@H]1CCCN1C(=O)[C@H](NC(=O)[C@H](CC(=O)O)NC(=O)[C@H](CC(C)C)NC(=O)[C@H](CO)NC(=O)[C@H](CC(C)C)NC(=O)[C@@H](N)C(C)C)C(C)C)[C@@H](C)CC)[C@@H](C)CC)[C@@H](C)O)C(=O)N[C@@H](CC(C)C)C(=O)N[C@@H](C)C(=O)N[C@@H](CCC(N)=O)C(=O)N[C@H](C(N)=O)C(C)C
EC50 [nM] (cAMP): 1.61 nM

B4: SEQ ID NO 240 (peptide)
peptide: Ac-IVLSLD[dV]PIKLK([AEEA-AEEA-γGlu-C20 diacid])KILLEQEKQKAQREQAETN[Aib]QILAQV-NH2
SMILES: CC[C@H](C)[C@H](NC(C)=O)C(=O)N[C@H](C(=O)N[C@@H](CC(C)C)C(=O)N[C@@H](CO)C(=O)N[C@@H](CC(C)C)C(=O)N[C@@H](CC(=O)O)C(=O)N[C@@H](C(=O)N1CCC[C@H]1C(=O)N[C@H](C(=O)N[C@@H](CCCCN)C(=O)N[C@@H](CC(C)C)C(=O)N[C@@H](CCCCNC(=O)COCCOCCNC(=O)COCCOCCNC(=O)CC[C@H](NC(=O)CCCCCCCCCCCCCCCCCCC(=O)O)C(=O)O)C(=O)N[C@@H](CCCCN)C(=O)N[C@H](C(=O)N[C@@H](CC(C)C)C(=O)N[C@@H](CC(C)C)C(=O)N[C@@H](CCC(=O)O)C(=O)N[C@@H](CCC(N)=O)C(=O)N[C@@H](CCC(=O)O)C(=O)N[C@@H](CCCCN)C(=O)N[C@@H](CCC(N)=O)C(=O)N[C@@H](CCCCN)C(=O)N[C@@H](C)C(=O)N[C@@H](CCC(N)=O)C(=O)N[C@@H](CCCNC(=N)N)C(=O)N[C@@H](CCC(=O)O)C(=O)N[C@@H](CCC(N)=O)C(=O)N[C@@H](C)C(=O)N[C@@H](CCC(=O)O)C(=O)N[C@H](C(=O)N[C@@H](CC(N)=O)C(=O)NC(C)(C)C(=O)N[C@@H](CCC(N)=O)C(=O)N[C@H](C(=O)N[C@@H](CC(C)C)C(=O)N[C@@H](C)C(=O)N[C@@H](CCC(N)=O)C(=O)N[C@H](C(N)=O)C(C)C)[C@@H](C)CC)[C@@H](C)O)[C@@H](C)CC)[C@@H](C)CC)C(C)C)C(C)C
EC50 [nM] (cAMP): 0.22 nM

B6: SEQ ID NO 241 (peptide)
peptide: Ac-IVLSLD[dV]PIKLK([γGlu-γGlu-C20 diacid])KILLEQEKQKEQREQAETN[Aib]QILAQV-NH2
SMILES: CC[C@H](C)[C@H](NC(C)=O)C(=O)N[C@H](C(=O)N[C@@H](CC(C)C)C(=O)N[C@@H](CO)C(=O)N[C@@H](CC(C)C)C(=O)N[C@@H](CC(=O)O)C(=O)N[C@@H](C(=O)N1CCC[C@H]1C(=O)N[C@H](C(=O)N[C@@H](CCCCN)C(=O)N[C@@H](CC(C)C)C(=O)N[C@@H](CCCCNC(=O)CC[C@H](NC(=O)CC[C@H](NC(=O)CCCCCCCCCCCCCCCCCCC(=O)O)C(=O)O)C(=O)O)C(=O)N[C@@H](CCCCN)C(=O)N[C@H](C(=O)N[C@@H](CC(C)C)C(=O)N[C@@H](CC(C)C)C(=O)N[C@@H](CCC(=O)O)C(=O)N[C@@H](CCC(N)=O)C(=O)N[C@@H](CCC(=O)O)C(=O)N[C@@H](CCCCN)C(=O)N[C@@H](CCC(N)=O)C(=O)N[C@@H](CCCCN)C(=O)N[C@@H](CCC(=O)O)C(=O)N[C@@H](CCC(N)=O)C(=O)N[C@@H](CCCNC(=N)N)C(=O)N[C@@H](CCC(=O)O)C(=O)N[C@@H](CCC(N)=O)C(=O)N[C@@H](C)C(=O)N[C@@H](CCC(=O)O)C(=O)N[C@H](C(=O)N[C@@H](CC(N)=O)C(=O)NC(C)(C)C(=O)N[C@@H](CCC(N)=O)C(=O)N[C@H](C(=O)N[C@@H](CC(C)C)C(=O)N[C@@H](C)C(=O)N[C@@H](CCC(N)=O)C(=O)N[C@H](C(N)=O)C(C)C)[C@@H](C)CC)[C@@H](C)O)[C@@H](C)CC)[C@@H](C)CC)C(C)C)C(C)C
EC50 [nM] (cAMP): 0.56 nM

The next lines start with the values.

EC50 [nM] (cAMP): 0.28 nM
B2: SEQ ID NO 244 (peptide)
peptide: Ac-IVLSLD[dV]PIKLK([γGlu-γGlu-C20 diacid])KILLEQEKQKAQREQAETN[Aib]QILAQV-NH2
SMILES: CC[C@H](C)[C@H](NC(C)=O)C(=O)N[C@H](C(=O)N[C@@H](CC(C)C)C(=O)N[C@@H](CO)C(=O)N[C@@H](CC(C)C)C(=O)N[C@@H](CC(=O)O)C(=O)N[C@@H](C(=O)N1CCC[C@H]1C(=O)N[C@H](C(=O)N[C@@H](CCCCN)C(=O)N[C@@H](CC(C)C)C(=O)N[C@@H](CCCCNC(=O)CC[C@H](NC(=O)CC[C@H](NC(=O)CCCCCCCCCCCCCCCCCCC(=O)O)C(=O)O)C(=O)O)C(=O)N[C@@H](CCCCN)C(=O)N[C@H](C(=O)N[C@@H](CC(C)C)C(=O)N[C@@H](CC(C)C)C(=O)N[C@@H](CCC(=O)O)C(=O)N[C@@H](CCC(N)=O)C(=O)N[C@@H](CCC(=O)O)C(=O)N[C@@H](CCCCN)C(=O)N[C@@H](CCC(N)=O)C(=O)N[C@@H](CCCCN)C(=O)N[C@@H](C)C(=O)N[C@@H](CCC(N)=O)C(=O)N[C@@H](CCCNC(=N)N)C(=O)N[C@@H](CCC(=O)O)C(=O)N[C@@H](CCC(N)=O)C(=O)N[C@@H](C)C(=O)N[C@@H](CCC(=O)O)C(=O)N[C@H](C(=O)N[C@@H](CC(N)=O)C(=O)NC(C)(C)C(=O)N[C@@H](CCC(N)=O)C(=O)N[C@H](C(=O)N[C@@H](CC(C)C)C(=O)N[C@@H](C)C(=O)N[C@@H](CCC(N)=O)C(=O)N[C@H](C(N)=O)C(C)C)[C@@H](C)CC)[C@@H](C)O)[C@@H](C)CC)[C@@H](C)CC)C(C)C)C(C)C

EC50 [nM] (cAMP): 0.13 nM
B3: SEQ ID NO 243 (peptide)
peptide: Ac-IVLSLD[dV]PIKLK([γGlu-γGlu-C20 diacid])KILLEQEKQKKQREQAETN[Aib]QILAQV-NH2
SMILES: CC[C@H](C)[C@H](NC(C)=O)C(=O)N[C@H](C(=O)N[C@@H](CC(C)C)C(=O)N[C@@H](CO)C(=O)N[C@@H](CC(C)C)C(=O)N[C@@H](CC(=O)O)C(=O)N[C@@H](C(=O)N1CCC[C@H]1C(=O)N[C@H](C(=O)N[C@@H](CCCCN)C(=O)N[C@@H](CC(C)C)C(=O)N[C@@H](CCCCNC(=O)CC[C@H](NC(=O)CC[C@H](NC(=O)CCCCCCCCCCCCCCCCCCC(=O)O)C(=O)O)C(=O)O)C(=O)N[C@@H](CCCCN)C(=O)N[C@H](C(=O)N[C@@H](CC(C)C)C(=O)N[C@@H](CC(C)C)C(=O)N[C@@H](CCC(=O)O)C(=O)N[C@@H](CCC(N)=O)C(=O)N[C@@H](CCC(=O)O)C(=O)N[C@@H](CCCCN)C(=O)N[C@@H](CCC(N)=O)C(=O)N[C@@H](CCCCN)C(=O)N[C@@H](CCCCN)C(=O)N[C@@H](CCC(N)=O)C(=O)N[C@@H](CCCNC(=N)N)C(=O)N[C@@H](CCC(=O)O)C(=O)N[C@@H](CCC(N)=O)C(=O)N[C@@H](C)C(=O)N[C@@H](CCC(=O)O)C(=O)N[C@H](C(=O)N[C@@H](CC(N)=O)C(=O)NC(C)(C)C(=O)N[C@@H](CCC(N)=O)C(=O)N[C@H](C(=O)N[C@@H](CC(C)C)C(=O)N[C@@H](C)C(=O)N[C@@H](CCC(N)=O)C(=O)N[C@H](C(N)=O)C(C)C)[C@@H](C)CC)[C@@H](C)O)[C@@H](C)CC)[C@@H](C)CC)C(C)C)C(C)C

EC50 [nM] (cAMP): 0.22 nM
B5: SEQ ID NO 242 (peptide)
peptide: [NMeI]VLSLD[dV]PIKLK([γGlu-γGlu-C20 diacid])KILLEQEKQKEQREQAETN[Aib]QILAQV-NH2
modifications: N-terminus assumed
SMILES: CC[C@H](C)[C@H](NC)C(=O)N[C@H](C(=O)N[C@@H](CC(C)C)C(=O)N[C@@H](CO)C(=O)N[C@@H](CC(C)C)C(=O)N[C@@H](CC(=O)O)C(=O)N[C@@H](C(=O)N1CCC[C@H]1C(=O)N[C@H](C(=O)N[C@@H](CCCCN)C(=O)N[C@@H](CC(C)C)C(=O)N[C@@H](CCCCNC(=O)CC[C@H](NC(=O)CC[C@H](NC(=O)CCCCCCCCCCCCCCCCCCC(=O)O)C(=O)O)C(=O)O)C(=O)N[C@@H](CCCCN)C(=O)N[C@H](C(=O)N[C@@H](CC(C)C)C(=O)N[C@@H](CC(C)C)C(=O)N[C@@H](CCC(=O)O)C(=O)N[C@@H](CCC(N)=O)C(=O)N[C@@H](CCC(=O)O)C(=O)N[C@@H](CCCCN)C(=O)N[C@@H](CCC(N)=O)C(=O)N[C@@H](CCCCN)C(=O)N[C@@H](CCC(=O)O)C(=O)N[C@@H](CCC(N)=O)C(=O)N[C@@H](CCCNC(=N)N)C(=O)N[C@@H](CCC(=O)O)C(=O)N[C@@H](CCC(N)=O)C(=O)N[C@@H](C)C(=O)N[C@@H](CCC(=O)O)C(=O)N[C@H](C(=O)N[C@@H](CC(N)=O)C(=O)NC(C)(C)C(=O)N[C@@H](CCC(N)=O)C(=O)N[C@H](C(=O)N[C@@H](CC(C)C)C(=O)N[C@@H](C)C(=O)N[C@@H](CCC(N)=O)C(=O)N[C@H](C(N)=O)C(C)C)[C@@H](C)CC)[C@@H](C)O)[C@@H](C)CC)[C@@H](C)CC)C(C)C)C(C)C
